Test results as given in publication PMC7395514.

Target: Celsr3 (UniProt Q91ZI0)
Experiment: co-immunoprecipitation, both in same cell
Settings: reference: Fzd3 wild type; sites T598

## Frizzled3 (Fzd3) (from UniProt Q61086) Fzd3 T598A
  binding against the reference: weaker
